Source: patent publication US12098378B2, “Anti-fungal polypeptides” (priority 2020, dated 2024)

Tests used:
[1] = tested on: Botrytis cinerea R16; experiment: In vitro antifungal assay, IncuCyte Zoom monitoring of fungal growth from spore suspension; type: cell-based; conditions: confluence at mid log growth, four-parameter logistic regression (FIG. 1); read-out: IC50, concentration that inhibits 50% of spore germination and/or mycelial growth
Protocol: (§1) Two-fold dilutions of purified VHH 10G11Q were prepared in 96-well microtiter plates. To 20 μl of these dilutions and to 20 μl of water as a control, 80 μl of fungal spore suspension (1 E+05 spores/ml in half strength potato dextrose broth (PDB)) were added, starting with a final VHH 10G11Q concentration of 10 μM. The test plates were incubated for 36 h at 25° C. using the IncuCyte Zoom live cell imaging system. All tests were performed in at least 2 replicates.
as §1, with “VHH 10G11Q and 41D01 were prepared” for “VHH 10G11Q were prepared”, “concentration of 40 μM. The” for “concentration of 10 μM. The”, “incubated for 48 h at” for “incubated for 36 h at”
Microplate graphs were generated using the time plot feature in the graph/export menu of the IncuCyte® Base Analysis Software. Raw data for confluence of treated samples at mid log growth were exported to GraphPad Prism 8 and plotted as a semi logarithmic function of the standard concentrations. IC50 values are extrapolated after fitting the data with a four-parameter logistic regression curve. Pathogen sensitivity is measured based on the IC50, which refers to the concentration (μM) that inhibits 50% of spore germination and/or mycelial growth.

[2] = tested on: Botrytis cinerea R16; experiment: Prolonged incubation antifungal assay followed over 14 days; type: cell-based; conditions: followed over a period of 14 days (FIG. 9)
Protocol: as §1, with “The test plates were incubated for 36 h at 25° C. using the IncuCyte Zoom live cell imaging system.” left out

[3] = tested on: liposomes from Fraction 3 of Botrytis cinerea lipid extract; experiment: Interaction with DPH-containing liposomes (fluorescence); type: binding; conditions: Fraction 3 liposomes (FIG. 11)
Protocol: (§2) In order to investigate the putative interaction partner of 10G11 and its variants, lipids were extracted from Botrytis cinerea hyphae as described in Example 1. For the further fractionation of the total lipid extract thin-layer chromatography was used (TLC; Skipski et al (1965), Biochimica et Biophysica Acta, 106(2): 386-396). The extract was spotted on a silica gel glass plate and run in a chromatography tank filled with 100 mL of the chloroform/methanol mixture (85/15, v/v). Lipid bands separated by TLC were stained with alpha-naphthol enabling visual detection of lipids. Four fractions were identified (FIG. 10): Fraction 1, the fraction of polar lipids; Fraction 2, with a Retention Factor (Rf) similar to the glucosylceramide reference standard (GlcCer from Tamogitake), likely to be ceramides; Fraction 3, with a slightly higher Rf than the reference standard; and Fraction 4, the non-polar phospholipids (PLs). For obtaining sufficient material from the separate Fractions, normal-phase flash chromatography can be used (Gorden, M. H. (2015). Encyclopedia of Analytical Science (Second edition), Elsevier). The TLE was therefore dissolved in CH2Cl2 by addition of a few drops of MeOH and loaded onto a 4 g normal phase flash cartridge with 15 μm particles. The column was run with CH2Cl2/MeOH (85/15, v/v) as the eluent. Finally, Fractions were filtered through a 0.45 μm syringe filter (nylon membrane), and dried. Hereafter, liposomes from the true lipid extract and its individual fractions were prepared via the thin-film hydration method with the addition of 1,6-diphenyl-1,3,5-hexatriene (DPH) (Trucillo et al, 2020. Processes 8(9):1022; Zhang, 2017. Liposomes 1522:1 7-22). […] Any disruption of the lipid membranes would lead to a decrease in fluorescent signal. Hereafter, the interaction of 10G11 with these liposomes was tested.

[4] = tested on: liposomes from Fraction 4, the non-polar phospholipids (PLs), of Botrytis cinerea lipid extract; experiment: as above; type: binding; conditions: Fraction 4 liposomes (FIG. 11)
Protocol: as §2

[5] = tested on: liposomes from total lipid extract (TLE) of Botrytis cinerea hyphae; experiment: as above; type: binding
Protocol: as §2

[6] = tested on: Fraction 3; experiment: ELISA with biotinylated liposomes on streptavidin-coated plates; type: binding, Botrytis cinerea
Source text: Dissociation constants (Kd) can be estimated based on the results of an ELISA. In equilibrium analysis as in ELISA, the Kd can be calculated from the equilibrium binding response. Where the ELISA plate wells are coated with a target antigen, and where the target antigen may be a lipid-containing fraction of the membrane of Botrytis cinerea, such a method may further use a range of concentrations of a polypeptide binding the target antigen. Where the ELISA generally provides a quantitative adsorption measure for each polypeptide concentration representing binding of the polypeptide to the target antigen, the range of concentration of a polypeptide may for example be 0.5, 1, 2.5, 5, and 10 μM. The most suitable range of concentrations used can vary depending on the affinity of the polypeptide to the target antigen. The corresponding absorption values as determined by ELISA may result in a sigmoid curve when absorption values are plotted against the logarithmic conversion of the polypeptide concentrations. This sigmoid curve may serve to define an IC50 value. Where this IC50 is the concentration of polypeptide where the corresponding absorption value is 50% of the saturated value as estimated by the maximum of the sigmoidal function, the Kd can be estimated by 1/Ka were the association constant (Ka) can be estimated as 1/IC50. Thus Kd corresponds to the analyte concentration that reaches equilibrium at 50% binding saturation. Commonly computation methods can be used for these calculations. For example, this can be done using GraphPad. In some embodiments, the Kd may be determined by surface plasmon resonance (SPR).
The above-mentioned method for the formation of liposomes (Example 12) was modified with the addition of a biotinylated lipid (12:0 Biotinyl M G (1-(12-N-biotin)aminododecanoyl-rac-glycerol), Sigma Aldrich), to allow for use of these liposomes for ELISA using streptavidin-coated plates (Pierce™ Streptavidin Coated High Capacity Plates, Clear, 96-Well, blocked with SuperBlock™ Buffer, Thermo Fisher Scientific).
To estimate the dissociation constant Kd value of 10G11 binding to Fraction 3, the ELISA set-up with biotinylated liposomes from Fraction 3 as described in Example 13 was used. 10G11 polypeptide was added in the following concentrations: 0.5, 1, 2.5, 5, and 10 μM, prepared by a serial dilution in phosphate buffer. […] This plot was used to estimate the Kd dissociation constant using GraphPad. Where non-linear regression fitting was used.

B1: 10G11: VHH polypeptide, SEQ ID NO: 2, begins with a D residue (protein)
VHH: DVQLVESGGGLVQAGGSLRLSCAASRSIFSINAMDWYRQAPGKQREWVAGITRGGTTKYADSVKGRFTISRDNAKKKVYLQMNSLKPEDTAVYYCNVLRGEQPWTRDYWGQGTQVTVSS
[1]
  IC50: 760 ± 100 nM
[2]
  effect on preventing spore outgrowth: allowed spore outgrowth to partly reinitiate after 3 days
[3]
  interaction with lipids in liposomes (DPH fluorescence): interacts
[4]
  interaction with lipids in liposomes (DPH fluorescence): interacts
[5]; stated generally for the liposomes with which 10G11 interacts (FIG. 11)
  membrane disruption of liposome vesicles: breakage of the vesicles
[5]; total lipid extract (TLE) liposomes (FIG. 11)
  interaction with lipids in liposomes (DPH fluorescence): interacts
[6]; 0.5, 1, 2.5, 5 and 10 μM polypeptide, non-linear regression fitting in GraphPad (FIG. 29), read-out: IC50 of ELISA absorption plot
  IC50: 760 to 1550 nM
[6]; converted from the ELISA IC50 range (FIG. 29), read-out: dissociation constant Kd, estimate
  Kd: 760 to 1550 nM
